{"source": "patent US7109170B2", "about": "“Region of factor IXa protease domain that interacts with factor VIIIa and methods therefor” (Saint Louis University, priority 1999, dated 2006)", "target": "factor X (Homo sapiens, UniProt P00742)", "sequence (P00742 183-488 limits assumed)": "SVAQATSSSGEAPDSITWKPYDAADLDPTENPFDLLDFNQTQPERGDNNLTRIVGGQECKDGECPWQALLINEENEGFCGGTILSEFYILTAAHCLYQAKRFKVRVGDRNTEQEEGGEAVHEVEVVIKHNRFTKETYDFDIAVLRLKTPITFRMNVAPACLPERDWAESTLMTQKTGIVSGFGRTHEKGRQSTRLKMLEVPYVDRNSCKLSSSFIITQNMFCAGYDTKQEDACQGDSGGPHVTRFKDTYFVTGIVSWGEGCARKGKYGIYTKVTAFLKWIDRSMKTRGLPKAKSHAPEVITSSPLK", "sequence (P00742 41-179 limits assumed)": "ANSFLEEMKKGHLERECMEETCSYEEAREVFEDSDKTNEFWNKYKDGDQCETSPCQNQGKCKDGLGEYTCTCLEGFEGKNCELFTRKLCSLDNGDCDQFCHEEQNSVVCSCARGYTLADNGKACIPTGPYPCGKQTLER", "sequence (P00451 20-759 partner limits assumed)": "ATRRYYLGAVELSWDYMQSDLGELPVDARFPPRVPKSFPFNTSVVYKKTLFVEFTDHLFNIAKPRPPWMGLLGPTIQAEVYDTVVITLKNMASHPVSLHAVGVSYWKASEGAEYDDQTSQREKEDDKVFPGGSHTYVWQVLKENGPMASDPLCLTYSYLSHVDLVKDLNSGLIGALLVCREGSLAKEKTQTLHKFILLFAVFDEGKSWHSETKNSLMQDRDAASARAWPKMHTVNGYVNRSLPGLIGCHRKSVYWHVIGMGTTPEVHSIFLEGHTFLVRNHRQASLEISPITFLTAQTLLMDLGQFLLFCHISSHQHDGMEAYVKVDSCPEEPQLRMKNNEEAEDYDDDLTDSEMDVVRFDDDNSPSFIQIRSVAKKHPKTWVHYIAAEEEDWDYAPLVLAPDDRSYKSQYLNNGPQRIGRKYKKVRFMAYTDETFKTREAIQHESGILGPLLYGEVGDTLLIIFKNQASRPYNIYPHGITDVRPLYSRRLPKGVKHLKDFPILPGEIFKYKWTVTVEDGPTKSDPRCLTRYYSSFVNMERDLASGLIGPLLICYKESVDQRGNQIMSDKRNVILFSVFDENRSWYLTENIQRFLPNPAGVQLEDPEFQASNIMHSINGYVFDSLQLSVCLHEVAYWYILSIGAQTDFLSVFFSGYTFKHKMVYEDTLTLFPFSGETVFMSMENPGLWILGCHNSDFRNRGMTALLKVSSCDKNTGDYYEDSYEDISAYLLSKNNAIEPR", "sequence (P00451 1668-2351 partner limits assumed)": "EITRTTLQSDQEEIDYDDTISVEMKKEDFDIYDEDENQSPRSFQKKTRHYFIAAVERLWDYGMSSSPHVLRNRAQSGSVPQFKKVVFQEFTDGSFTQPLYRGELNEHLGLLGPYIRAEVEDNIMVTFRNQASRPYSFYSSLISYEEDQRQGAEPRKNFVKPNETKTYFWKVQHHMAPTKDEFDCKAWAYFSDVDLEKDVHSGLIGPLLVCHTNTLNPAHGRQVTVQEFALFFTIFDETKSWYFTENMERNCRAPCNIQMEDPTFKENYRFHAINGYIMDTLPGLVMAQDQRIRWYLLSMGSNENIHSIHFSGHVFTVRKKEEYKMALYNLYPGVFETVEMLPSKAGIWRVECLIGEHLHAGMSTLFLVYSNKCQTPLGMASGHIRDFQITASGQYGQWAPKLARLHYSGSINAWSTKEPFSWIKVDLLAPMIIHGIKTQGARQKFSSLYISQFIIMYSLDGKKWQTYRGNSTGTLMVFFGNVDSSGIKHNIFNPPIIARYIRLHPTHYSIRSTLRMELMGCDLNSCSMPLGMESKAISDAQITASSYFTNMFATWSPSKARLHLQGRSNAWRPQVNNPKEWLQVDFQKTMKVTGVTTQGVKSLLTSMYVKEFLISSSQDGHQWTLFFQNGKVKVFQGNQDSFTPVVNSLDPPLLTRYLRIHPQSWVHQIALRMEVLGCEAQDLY", "test": "factor X activation in complete intrinsic Tenase system (IXa, Ca2+, phospholipid, VIIIa)", "assay_type": "biochemical", "design": "Normal human plasma factor IX (IXNP) and factor X were isolated as described in Bajaj and Birktoft; from tissue; host or cells: human plasma (factor X); factor VIII obtained from Dr. Leon Hoyer, American Red Cross", "conditions": "70 pM VIIIa, 0.5 nM IXa, 15 nM X, phospholipid present", "description": "The ability of each activated mutant to activate factor X in the presence and absence of phospholipid and factor VIIIa was determined as follows. The activation was carried out at 37° C. in a 50 μl reaction volume, in TBS/BSA pH 7.4, for various time periods. At the end of the incubation time period, each reaction mixture received 1 μl of 0.5 M EDTA to stop further generation of factor Xa. A 40 μL aliquot was then added to 0.1 ml quartz cuvette containing S-2222 in 75 μL of TBS/BSA, pH 7.4. The final concentration of S-2222 was 100 μM. The p-nitroaniline release was measured continuously (ΔA405/min) for up to 20 min (Sabharwal et al., 1995 supra; Sabharwal et al., 1997, supra). Factor Xa generated was calculated from a standard curve constructed using factor Xa prepared from insolubilized Russell's viper venom.\nFactor X activation measurements were made under four experimental regimes. In one, Ca^2+ and phospholipid were present. In this system activation was carried out for 5–15 minutes and the concentration of each IXa protein was 20 nM, phospholipid was 25 μM, and factor X was 100 nM. In the second regime, Ca^2+, phospholipid and factor VIIIa were present. […] In the third regime, only Ca^2+ was present. Here, activation was carried out for 2–20 min and concentration of each IXa protein was 400 nM and factor X was 1 μM. Finally, in the fourth regime, Ca^2+ and VIIIa were present. Here, activation was carried out for 15–120 sec and the concentration of each IXa protein was 2 μM, VIIIa was 14 nM, and factor X was 400 nM.\nIn all of the above factor X activation experiments, the incubation times chosen were those in which the factor Xa generated was always less than 10 nM. This precautionary measure was taken to prevent activation of factor X by the generated factor Xa (see, e.g., Link. and Castellino, 1982, Arch Biochem. Biophys. 215, 215–221). Further, in those incubation mixtures which contained […], control experiments were also performed in which factor VIIIa was omitted. […] In the presence of factor VIIIa, 10 μM phospholipid was used based upon previous observations (Mathur et al., 1997, supra; van Dieijen et al., 1981, J. Biol. Chem. 256, 3433–3442). The concentrations of factor X selected for each set of reaction conditions are those which are below or at the Km values (van Dieijen et al., supra; Fay and Koshibu, 1998, J Biol. Chem. 273, 19049–19054). In this region of the Michaelis-Menton curve, the rate of formation of factor Xa is proportional to the substrate factor X and therefore to the affinity of the factor IXa enzyme for factor X.\nNext, the activation of factor X in a complete intrinsic Tenase system (IXa, Ca^2+, phospholipid, VIIIa) was studied."}
{"substance": "IXaV331A: activated factor IX mutant V331A", "values": [{"measurement": "X-activation rate, PL-plus system", "value": "0.55 ± 0.04", "unit": "nM/min"}]}
